The target of this assay is T1, Human OX40L (antigen of the ForteBio affinity assay) (human, UniProt P23510 51-183, limits assumed).
T1 construct: It may be the Acro His-tagged protein, but nothing ties it to that; also called CD252; CD134L
T1 sequence (looked up): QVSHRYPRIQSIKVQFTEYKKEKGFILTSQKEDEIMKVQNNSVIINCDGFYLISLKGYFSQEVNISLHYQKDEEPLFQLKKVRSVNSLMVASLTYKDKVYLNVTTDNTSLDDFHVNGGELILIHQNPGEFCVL
The assay can be described thus: ForteBio (biolayer interferometry). Background: Biolayer interferometry detects binding as a change in optical thickness at a sensor tip.

This passage reports Kd results from patent publication EP4755917A1 (Fortvita Biologics Inc., dated 2026).

B1: HZ18 (antibody, human IgG4 S228P, kappa, V domains shown)
VH: EVQLVQSGAEVKKPGATVKISCKVSGYSFTGYRIHWVQQAPGKGLEWMGYVDPYDDKTDYSQKSKGRVTITADTSTDTAYMELSSLRSEDTAVYYCAREGFAYWGQGTLVTVSS
VL: DIQMTQSPSSLSASVGDRVTITCTSSSSLRYMHWYQQKPGKAPKLLIYNTFDLASGVPSRFSGSGSGTDFTLTISSLQPEDFATYYCQQRTTYPPTFGQGTKLEIKR
notes: Humanized antibody expressed in HEK293; also called humanized anti-OX40L antibody
As usually defined, the Kd is the concentration at which binding is half-saturated. Lower therefore signals tighter binding. As to B1, binding was characterised by a dissociation constant (Kd) of 307 pM.

B2: HZ22 (antibody, human IgG4 S228P, kappa, V domains shown)
VH: QVQLQESGPGLVKPSQTLSLTCTVSGYAVTGDYAWSWIRQPPGKRLEWIGYISSSAGTNYNPSLKSRVTISVDTSKNQFSLKLSSVTAADTAVYYCARDLYYGGRNQWYFDVWGQGTLVTVSS
VL: DIQMTQSPSSLSASVGDRVTITCSATSSIIYMHWYQQKPGKAPKLLIYDTSKLPSGVPSRFSGSGSGTDFTLTISSLQPEDFATYYCHQRSSFPFTFGGGTKVEIKR
notes: as for B1
B2: binding was characterised by a dissociation constant (Kd) of 379 pM.
